The target in the test is N-terminal GST-like domain of P. berghei glutamyl-tRNA synthetase (ERS-N) (P. berghei). Put plainly: SEC-SAXS. For orientation: In gel filtration, larger molecules generally elute earlier.

The substance “N-terminal GST-like domain of P. berghei glutamyl-tRNA synthetase (ERS-N) (from UniProt A0A509AR09 1-240) (domain or fragment)” yielded a percent of dimers (OLIGOMER fit) of 77.9% and a percent of tetramers (OLIGOMER fit) of 22.1%.
